Measurements: the RNAGym collection of RNA variant scans (doi:10.7554/elife.90254)

B1: LINE1-full (parent)
chain: UACGUAGGUGGUUUUCCCCUGAUAGUGCUAAGGGGGCCUGGAAGUUUGGACUGGGCAGAGCUCAACACAGCGUGGCAAAGUGGCUGUGGCUAGACUGCCUCUCUGGAUUCCUCGUCACUCAGCAGGGCAUCUCUGAGAGAAAUGCC

Variants of: B1
Experiment: self-cleavage, relative activity (ratio to wild type); higher = more cleavage; in vitro, sequencing; the parent is a self-cleaving ribozyme

Going from UACGUAGGUGGUUUUCCCCUGAUAGUGCUAAGGGGGCCUGGAAGUUUGGACUGGGCUGAGCUCAACACAGCGUGGCAAAGUGGCUGUGGCUAGUCUGCCUCUCUGGAUUCCUCGUCACUCAGCAGGGCAUCUCUGAGAGAAAUGCC [A57U A94U] to UACGUAGGUGGUUUUCCCCUGAUAGUGCUAAGUGGGCCUGGAAGUUUGGACUGGGCAGAGCUCAACACAGCGUGGCAAGGUGGCUGUGGCUAGACUGCCUCUCUGGAUUCCUCGUCACUCAGCAGGGCAUCUCUGAGAGAAAUGCC [G33U A79G], the self-cleavage rises from 0.04 to 1.51.

First: UACGUAGGUGGUUUUCCCCUGAUAGUGCUAAGGGGGCCUGGAAGUUUGGACUGGGCAGAGCUCAACACAGCGUGGCAAAGAGGCUGUGGCUAGACUGCCUCUCUGGAUUCCUCGUCACUCGGCAGGGCAUCUCUGAGAGAAAUGCC [U81A A121G]
Second: UACGUAGGUGGUUUUCCCCUGAUAGUGCUAAGGGGGCCUGGAAGUUUGGACUGGGCGGAGCUCAACACAGCGUGGCGAAGUGGCUGUGGCUAGACUGCCUCUCUGGAUUCCUCGUCACUCAGCAGGGCAUCUCUGAGAGAAAUGCC [A57G A77G]
The self-cleavage of the first is higher: 2.65 for the first, 1.68 for the second.

Compared with UACGCAGGAGGUUUUCCCCUGAUAGUGCUAAGGGGGCCUGGAAGUUUGGACUGGGCAGAGCUCAACACAGCGUGGCAAAGUGGCUGUGGCUAGACUGCCUCUCUGGAUUCCUCGUCACUCAGCAGGGCAUCUCUGAGAGAAAUGCC [U5C U9A], UACGUAGGUGGUUUUCCCCUGAUAGUGCUAAGGUGGCCUGGAAGUUUGGACUGGGCAGAGCUCAACACAGCGUGGCAAAGUGGCUGUGGCUAGACUGCCUCUCUGGAUUCCUCGUUACUCAGCAGGGCAUCUCUGAGAGAAAUGCC [G34U C116U] is higher in self-cleavage: 0.74 for the first, 1.46 for the second.

Compared with UACGUAGGUGGUUUUCCCCUGAUAGUGCUAAGGGGGCCUGGAAGUUUGGACUGGGCAGAGCUAAACACAGCGUGGCAAAGUGGCUGUGGCUAGACUGCCUCUCUGGAUUCCUCGUCACUCAGCAGGGCAUCUCUGAGAGGAAUGCC [C63A A140G], UACGUAGGUGGUUUUCCCCUGAUAGUGCUAAGGAGGCCUGGAAGUUUGGACAGGGCAGAGCUCAACACAGCGUGGCAAAGUGGCUGUGGCUAGACUGCCUCUCUGGAUUCCUCGUCACUCAGCAGGGCAUCUCUGAGAGAAAUGCC [G34A U52A] is higher in self-cleavage: 0 for the first, 1.7 for the second.

First: UACGUAGGUGGUUUUCCCCUGAUAGUGCUAAGGGGGCCUGGAAGUUUGGACUGGGCAGAGCUCAACACAGCGUGGCAAAGUGGCUGUGGCUAGACCGCCUCUCUGGAUUCCUCGUCACUCAGCAGGGCAUCUCCGAGAGAAAUGCC [U96C U134C]
Second: UACGUAGGGGGUUUUCCCCUGAUAGUGCUAAGGGGGCCUGGAAGUUUGGACUGGGCAGAGCUCAACACAGCGUGGCGAAGUGGCUGUGGCUAGACUGCCUCUCUGGAUUCCUCGUCACUCAGCAGGGCAUCUCUGAGAGAAAUGCC [U9G A77G]
The self-cleavage of the first is lower: 0.11 for the first, 1.55 for the second.

Compared with UACGUAGGUGGUUUUCCCCUGAUAGUGCUAAGGGGGCCUGGAAGUUUGGACUGGGCAGAGCACAACACAGCGUGGCAAAGUGGCGGUGGCUAGACUGCCUCUCUGGAUUCCUCGUCACUCAGCAGGGCAUCUCUGAGAGAAAUGCC [U62A U85G], UACGUAGGUGGUUUUCCCCUGAUAGUGCUAAGGGGGCCUGGAAGUUCGGACUGGGCAGAGCUCAACUCAGCGUGGCAAAGUGGCUGUGGCUAGACUGCCUCUCUGGAUUCCUCGUCACUCAGCAGGGCAUCUCUGAGAGAAAUGCC [U47C A67U] is higher in self-cleavage: 0 for the first, 0.2 for the second.

First: UACGUAGGUGGUUUUCCCCGGAUAGUGCUAAGGGGGCCUGGAAGUUUGGACUGGGCAGAGCUCAACACAGCGUGGCAAAGAGGCUGUGGCUAGACUGCCUCUCUGGAUUCCUCGUCACUCAGCAGGGCAUCUCUGAGAGAAAUGCC [U20G U81A]
Second: UACGUAGGUGAUUUUCCCCUGAUAGUGCUAAGGGGGCCUGGAAGUUUGGACUGGGCAGAGCUCCACACAGCGUGGCAAAGUGGCUGUGGCUAGACUGCCUCUCUGGAUUCCUCGUCACUCAGCAGGGCAUCUCUGAGAGAAAUGCC [G11A A64C]
The self-cleavage of the first is higher: 2.03 for the first, 0.1 for the second.

Going from UACGUAGGUGGCUUUCCCCUGAUAGUGCUAAGGGGGCCUGGAAGUUCGGACUGGGCAGAGCUCAACACAGCGUGGCAAAGUGGCUGUGGCUAGACUGCCUCUCUGGAUUCCUCGUCACUCAGCAGGGCAUCUCUGAGAGAAAUGCC [U12C U47C] to UACGUAGGUGGUUUUCCCCUGAUAGUGCUAAGGGGGCCUGGAAGUUUGGACUGGGCAGAGCUCAACACAGCGUGGCAAAGUGGCUGUGGCUAGGCUACCUCUCUGGAUUCCUCGUCACUCAGCAGGGCAUCUCUGAGAGAAAUGCC [A94G G97A], the self-cleavage falls from 1.42 to 0.02.

First: UACGUAGGUGGUUUUCCCCUGAUAGUGCUAAGGGGGCCUGGAAGUUUGGACUGGGCAGAGCUCAACACAGCGUGGCAAUGUGGCUGUGGCUAGACUGCCUCUCUGGAUUCCUCAUCACUCAGCAGGGCAUCUCUGAGAGAAAUGCC [A79U G114A]
Second: UACGUAGGUGGUUUUCCCCUGAUAGUGCUAAGGGCGCCUGGAAGUUUGGACUGGGCAGAGCUCAACACAGCGUGGCAAAGUGGCUGUGGCUAGACUGCCUCUCUGGAUUCCUCGUCACCCAGCAGGGCAUCUCUGAGAGAAAUGCC [G35C U119C]
The self-cleavage of the first is lower: 1.79 for the first, 1.98 for the second.

First: UACGUAGGUGGUUUUCCCCUGAUAGUGCUAAGGGGGCCUGGAAGUCUGGACUGGGCAGAGCUCAACACAGCGUGGCAAAGUGGCUGUGGCUAGACUACCUCUCUGGAUUCCUCGUCACUCAGCAGGGCAUCUCUGAGAGAAAUGCC [U46C G97A]
Second: UACGUAGGAGGUUUUCCCCUGAUAGUGCUAAGGGGGCCUGGAAGUUUGGACUGGGCAGAGCUCAACACAGCGUGGCAAAGUGGCUGUGGCUAGACUGCCUCUCUGGAUUCCUCGUCACUCAGCAGGGCAACUCUGAGAGAAAUGCC [U9A U130A]
The self-cleavage of the first is lower: 0.23 for the first, 1.23 for the second.

Compared with UACGUAGGUGGUUUUCCCCUGAUAGUGCUAAGGGGGCCUGGAAGUUUGGACUGGGUAGAGCUCAACACAGCGUGGCAAAGUGGCUGUGGCUAGACUGCCUCUCUGGAUCCCUCGUCACUCAGCAGGGCAUCUCUGAGAGAAAUGCC [C56U U109C], AACGUAGGUGGUUUUCCCCUGAUAGUGCUAAGGGGGCCUGGAAGUUUGGACCGGGCAGAGCUCAACACAGCGUGGCAAAGUGGCUGUGGCUAGACUGCCUCUCUGGAUUCCUCGUCACUCAGCAGGGCAUCUCUGAGAGAAAUGCC [U1A U52C] is higher in self-cleavage: 0.03 for the first, 1.64 for the second.

Going from UACGUAGGUGGUUUUCCCCUGAUAGUGCUAAGGGGGCCUGGAAGUAUGGACUGGGCAGAGCUCAACACAGCGUGGCAAAGUGGCUGUGGCUAGACUGCCUCUCUGGAUUCCUCGACACUCAGCAGGGCAUCUCUGAGAGAAAUGCC [U46A U115A] to UACGUAGGUGGUUUUCCCCUGAUAGUGCUAAGGGGGCCUGGAAGUAUGGACUGGGCAGGGCUCAACACAGCGUGGCAAAGUGGCUGUGGCUAGACUGCCUCUCUGGAUUCCUCGUCACUCAGCAGGGCAUCUCUGAGAGAAAUGCC [U46A A59G], the self-cleavage falls from 1.26 to 0.07.

Going from UACGUAGGUGGUUUUCCCCUGAUAGUGCUAAGGGGGCCUGGAAGUUUGGACUGGGCAGAGCUCAACCCAGCGUGGCAAAGUGGCUGUGGCUAGACUGCCUCUCUGGAUCCCUCGUCACUCAGCAGGGCAUCUCUGAGAGAAAUGCC [A67C U109C] to UACGUAGGUGGUUUUCCCCUGAUAGUGCUAAGGGGACCUGGAAGUUUGGACUGGGCAGAGCUCAACACAGCGUGGCAAAGUGGCUGUGGCUAGACUGCCUCUCUGGAUUCCUCGUCACUCAGCAGGGCAUCUCUGAGAGAAAUGCC [G36A], the self-cleavage rises from 0.06 to 1.16.

First: UACGUAGGUGGUUUUCCCCUGAUAGUGCAAAGGGGGCCUGGAAGUCUGGACUGGGCAGAGCUCAACACAGCGUGGCAAAGUGGCUGUGGCUAGACUGCCUCUCUGGAUUCCUCGUCACUCAGCAGGGCAUCUCUGAGAGAAAUGCC [U29A U46C]
Second: UACGUAGGUGGUUUUCCCCUGAUAGUGCUAAGGGGGCCUGGAAGUUUGGACUGGGCAGAGCUCAACACAGCUUGGCAAAGUGGCUGAGGCUAGACUGCCUCUCUGGAUUCCUCGUCACUCAGCAGGGCAUCUCUGAGAGAAAUGCC [G72U U87A]
The self-cleavage of the first is higher: 1.21 for the first, 0.03 for the second.

Going from UACGUAGGUGGUUUUCCCCUGAUAGUGCUAAGGGGGCCUGGAAGUUUGGACUGGGCAGAGCUCAACACAGCGUGGCAAAGUGGCUGUGGCUAGACUGCCUCAUUGGAUUCCUCGUCACUCAGCAGGGCAUCUCUGAGAGAAAUGCC [U102A C103U] to UACGUAGGUGGUUCUCCCCUGAUAGUGCUAAGGGGGCCUGGAAGUUUGGACUGGGCAGAGCUCAACACAGCGUGGCAAAGUGGCUGUGGCUAGACUGCCUCUCUGGUUUCCUCGUCACUCAGCAGGGCAUCUCUGAGAGAAAUGCC [U14C A107U], the self-cleavage falls from 1.41 to 1.2.

Compared with UACGUAGGUGGUUUUCCCCUGAUAGUGCUAAGGGGGCCUGGAAGUUUGGACUGGGCAGAGCUCAACACAGCGUGGCAAAGCGGCUGUGACUAGACUGCCUCUCUGGAUUCCUCGUCACUCAGCAGGGCAUCUCUGAGAGAAAUGCC [U81C G89A], UACGUAGGUGGUUCUCCCCUGAUAGUGCUAAGGGAGCCUGGAAGUUUGGACUGGGCAGAGCUCAACACAGCGUGGCAAAGUGGCUGUGGCUAGACUGCCUCUCUGGAUUCCUCGUCACUCAGCAGGGCAUCUCUGAGAGAAAUGCC [U14C G35A] is higher in self-cleavage: 0.06 for the first, 1.22 for the second.

First: UACGUAGGUGGUUUCCCCCUGAUAGUGCUAAGGGGGCCUGGAUGUUUGGACUGGGCAGAGCUCAACACAGCGUGGCAAAGUGGCUGUGGCUAGACUGCCUCUCUGGAUUCCUCGUCACUCAGCAGGGCAUCUCUGAGAGAAAUGCC [U15C A43U]
Second: UACAUAGGUGGUUUUCCCCUGAUAGUGCUAAGGGGGCCUGGAAGUUUGGACUGGGCAGAGCUCAACACAGCGUGGCAAAGUGGCUGCGGCUAGACUGCCUCUCUGGAUUCCUCGUCACUCAGCAGGGCAUCUCUGAGAGAAAUGCC [G4A U87C]
The self-cleavage of the first is higher: 1.09 for the first, 0.1 for the second.

Compared with UACGUAGGUGGUUUUCCCCUGAUAGUGCUAAGGGGGCCUGGAAGUUUGGACUGGGCAGAGCUCAACACAGCGUGGCAAAGUGGCUGUGGCUAGACUGCCUCUCCGGAUUCCUCGUCACUCAGAAGGGCAUCUCUGAGAGAAAUGCC [U104C C123A], UACGUAGGUGGUUUUCCCCUGAUAGUGCUAAGGGGGCCUGGAAGUUUGGACUGGGCAGAGCUCAACACAGCGUGGCAAAGUGGCUGUGGCUAGACUGCCUCUCUGGAUUCCUUGUCACUCAGCUGGGCAUCUCUGAGAGAAAUGCC [C113U A124U] is lower in self-cleavage: 1.73 for the first, 1.3 for the second.

Going from UACGUAGGUGGUUUUCCCCUGAUAGUGCUAAGGGGGCCUGGAAGUUUGGACUGGGCAGAGCUCAACACAGCGUGGCAAAGUGGCUGUGGCUAGACUGCCUCCCCGGAUUCCUCGUCACUCAGCAGGGCAUCUCUGAGAGAAAUGCC [U102C U104C] to UACGUAGGUGGUUUUCCCCUGAUAGUGCUAAGGGGGCCUGGAAGUUUGGACUGGGCAGAGCUCAACACAGCGUGGCAAAGUGGCUGUGGCUUGACUGCCUCUCUGGAUUCCUCGUCACUCAGCAGGGCAUCUCAGAGAGAAAUGCC [A92U U134A], the self-cleavage falls from 0.95 to 0.52.

UACGUAGGUGGUUUUCCCCUGAUAGUGCUAAGGGGGCCUGGAAGUUUGGACCGGGCAGAGCUCAACACAGCGUGGCAAAGUGGCUGUGGCUAGACUGCCUCUCUGGAUUCCUCGUCGCUCAGCAGGGCAUCUCUGAGAGAAAUGCC [U52C A117G] gave a self-cleavage of 1.04.
